Experimental data as given in paper PMC6030205, “The REN4 rheostat dynamically coordinates the apical and lateral domains of Arabidopsis pollen tubes” (Nature Communications, 2018).

Target: T1, MBP-REN4 (Arabidopsis, UniProt O48716 1-465)
T1 construct: REN4, Arabidopsis, AT2G26490; full length REN4 CDS with stop codon (465 aa) in pDest-566; CDS with stop codon in pDest-566 (Addgene) implies an N-terminal MBP; that vector may also add a His6 tag (surmise); also called REN4 fused with MBP; source: E. coli, purified (amylose beads)
T1 sequence (looked up): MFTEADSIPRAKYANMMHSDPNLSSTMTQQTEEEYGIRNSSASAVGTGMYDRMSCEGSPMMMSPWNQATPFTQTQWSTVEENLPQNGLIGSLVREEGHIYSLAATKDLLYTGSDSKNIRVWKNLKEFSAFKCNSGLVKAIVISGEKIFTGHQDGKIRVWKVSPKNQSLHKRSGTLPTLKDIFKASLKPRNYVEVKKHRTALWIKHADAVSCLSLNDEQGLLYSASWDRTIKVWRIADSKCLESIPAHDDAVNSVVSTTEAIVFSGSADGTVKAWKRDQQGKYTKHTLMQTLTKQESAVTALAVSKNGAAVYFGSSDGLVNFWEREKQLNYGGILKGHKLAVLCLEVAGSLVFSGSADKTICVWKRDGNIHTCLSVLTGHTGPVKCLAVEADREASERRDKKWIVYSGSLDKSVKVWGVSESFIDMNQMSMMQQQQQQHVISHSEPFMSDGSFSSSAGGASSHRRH
Assay: pull-down; MBP-REN4 on amylose agarose beads; about 1 ug GST-ROP1 preloaded with 1 mM GTP or GDP; binding buffer 50 mM Tris-HCl pH 7.5, 10 mM MgCl2, 1 mM DTT, 10 mg/ml BSA, 5 mM EDTA; 4 C, 1 h; washes with 1% Triton X-100; anti-GST and anti-MBP blots
Conditions: both partners purified

binding result: binds
B1: GST-CA-ROP1 (G15V), GTP-bound constitutively active form of ROP1 (natural protein)
chain: not shown
notes: ROP1, Arabidopsis; full length ROP1 CDS with stop codon, mutated G15V, in pDest15; Incubated with 1 mM GTP before the pull-down; source: E. coli, purified (glutathione-agarose); not shown: GST, N-terminal, kept
